Source: PMC7714071, “Interaction of amyloid beta with humanin and acetylcholinesterase is modulated by ATP” (FEBS Open Bio, 2020)
Values belong to the substance of their own block, whether it stands above or below them.

Legend:
[1] = molecular target: Aβ from A549 cell‐conditioned media (human (endogenous in A549)); test: ELISA; antibody (6E10 or 82E1 against Aβ, or anti‐HN, or anti‐AChE) bound to the wells; 300 μL conditioned medium (0.5 μg·μL^−1) added without or with ATP (100 μM, 1 mM); the partner held with the captured protein detected by its primary antibody
[2] = molecular target: Aβ from A549 cell‐conditioned media (human (endogenous in A549)); test: ELISA; single‐site ELISA for oligomerized Aβ (capture 4G8, detection 4G8‐biotin) against two‐site ELISA for total Aβ (capture 6E10, detection 4G8‐biotin); conditioned media, control or immunodepleted of HN or AChE, without or with ATP
[3] = molecular target: Aβ from H1299 cell‐conditioned media (human (endogenous in H1299)); test: as above

Sequence of AChE from A549 cell‐conditioned media (P22303 32-614): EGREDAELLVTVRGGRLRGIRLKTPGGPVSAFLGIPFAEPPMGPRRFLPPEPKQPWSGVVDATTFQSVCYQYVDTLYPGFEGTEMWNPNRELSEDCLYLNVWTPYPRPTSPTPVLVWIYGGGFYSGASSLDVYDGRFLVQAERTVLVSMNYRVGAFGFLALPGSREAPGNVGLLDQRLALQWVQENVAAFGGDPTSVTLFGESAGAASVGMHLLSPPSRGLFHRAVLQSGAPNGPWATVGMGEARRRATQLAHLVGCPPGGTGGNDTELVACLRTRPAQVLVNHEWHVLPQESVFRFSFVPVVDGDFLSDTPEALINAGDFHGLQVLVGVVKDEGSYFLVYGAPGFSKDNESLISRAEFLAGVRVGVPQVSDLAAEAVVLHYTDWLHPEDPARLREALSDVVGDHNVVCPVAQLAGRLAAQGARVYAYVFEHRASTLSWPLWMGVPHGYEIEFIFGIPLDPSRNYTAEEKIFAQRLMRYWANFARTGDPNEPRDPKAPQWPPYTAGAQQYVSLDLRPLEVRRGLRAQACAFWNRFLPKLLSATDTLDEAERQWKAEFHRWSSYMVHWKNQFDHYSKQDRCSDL

Substance: AChE from A549 cell‐conditioned media (from UniProt P22303 32-614) (enzyme)
fold decrease in AChE in a complex with Aβ with 100 μM ATP, relative to samples without added ATP [1]: 2.3 fold

fold increase in HN bound to Aβ with 100 μM ATP, relative to samples without added ATP [1]: 1.85 fold
fold increase in HN bound to Aβ with 1 mM ATP, relative to samples without added ATP [1]: 2.5 fold
Substance: HN from A549 cell‐conditioned media (peptide)

percent oligomer of the total Aβ that remained after immunodepletion of AChE [2]: 47%
percent oligomer of the total Aβ that remained after immunodepletion of HN [2]: 86%
percent oligomer of total Aβ [2]: 63%
Substance: Aβ from A549 cell‐conditioned media (peptide)

percent oligomer of the total Aβ that remained after immunodepletion of HN [3]: 69%
percent oligomer of total Aβ [3]: 48%
Substance: Aβ from H1299 cell‐conditioned media (peptide)
